Test results: patent publication US20240327497A1
Changes are numbered by the printed parent chain. In names and notes the source's numbering stands. Several values for one entry are separate records, joined by “and”; a condition that tells them apart may be missing. Equal values may be shown once. Each block holds one binder with its values, some of them ahead of it.

Columns and labels:
[1] = molecular target: canine FcRn (FcRn large subunit with canine beta-2-microglobulin) (canine); test: SPR pH 5.5, SASA-Fc captured on BSA, FcRn 200 nM
[2] = molecular target: canine FcRn (FcRn large subunit with canine beta-2-microglobulin) (canine); test: SPR pH 5.5, SASA-Fc captured on BSA, FcRn 200 nM; remark: listed apart in the source
[3] = molecular target: canine FcRn (FcRn large subunit with canine beta-2-microglobulin) (canine); test: SPR pH 5.5, SASA-Fc captured on BSA, FcRn 200 nM; remark: listed apart in the source
[4] = molecular target: canine FcRn (FcRn large subunit with canine beta-2-microglobulin) (canine); test: SPR pH 5.5, SASA-Fc captured on BSA, FcRn 200 nM; remark: listed apart in the source
[5] = molecular target: canine FcRn (FcRn large subunit with canine beta-2-microglobulin) (canine); test: SPR pH 5.5, SASA-Fc captured on BSA, FcRn 200 nM; remark: listed apart in the source
[6] = molecular target: canine FcRn (FcRn large subunit with canine beta-2-microglobulin) (canine); test: SPR pH 5.5, SASA-Fc captured on BSA, FcRn 200 nM; remark: listed apart in the source
[7] = molecular target: canine FcRn (FcRn large subunit with canine beta-2-microglobulin) (canine); test: SPR pH 5.5, SASA-Fc captured on BSA, FcRn 200 nM; remark: listed apart in the source
[8] = molecular target: canine FcRn (FcRn large subunit with canine beta-2-microglobulin) (canine); test: SPR pH 5.5, SASA-Fc captured on BSA, FcRn 200 nM; remark: listed apart in the source
[9] = molecular target: canine FcRn (FcRn large subunit with canine beta-2-microglobulin) (canine); test: SPR pH 5.5, SASA-Fc captured on BSA, FcRn 200 nM; remark: listed apart in the source
[10] = molecular target: canine FcRn (FcRn large subunit with canine beta-2-microglobulin) (canine); test: SPR pH 6.0, SASA-Fc captured on BSA, FcRn 200 nM
[11] = molecular target: canine FcRn (FcRn large subunit with canine beta-2-microglobulin) (canine); test: SPR pH 5.5, SASA-Fc captured on BSA, FcRn 100-800 nM
[12] = molecular target: canine FcRn (FcRn large subunit with canine beta-2-microglobulin) (canine); test: SPR pH 6.0, SASA-Fc captured on BSA, FcRn 100-800 nM
[13] = molecular target: canine FcRn (FcRn large subunit with canine beta-2-microglobulin) (canine); test: SPR pH 5.5, SASA-Fc captured on BSA, FcRn 400 nM; average of 12 wild-type runs
[14] = molecular target: canine FcRn (FcRn large subunit with canine beta-2-microglobulin) (canine); test: SPR pH 6.0, IgG coupled to CM5, FcRn 200-3200 nM
[15] = molecular target: canine FcRn (FcRn large subunit with canine beta-2-microglobulin) (canine); test: SPR pH 5.9, IgG coupled to C1 chip, steady state fit

Kd [1]: 8990 nM and 3110 nM
koff [1]: 0.347 s⁻¹ and 0.354 s⁻¹
kon [1]: 38700 M⁻¹ s⁻¹ and 114000 M⁻¹ s⁻¹
Kd [2]: 1710 nM and 2660 nM
koff [2]: 0.288 s⁻¹ and 0.326 s⁻¹
kon [2]: 168000 M⁻¹ s⁻¹ and 123000 M⁻¹ s⁻¹
Kd [3]: 2050 nM and 2990 nM
koff [3]: 0.31 s⁻¹ and 0.315 s⁻¹
kon [3]: 151000 M⁻¹ s⁻¹ and 105000 M⁻¹ s⁻¹
Kd [4]: 884 nM and 862 nM
koff [4]: 0.21 s⁻¹ and 0.218 s⁻¹
kon [4]: 237000 M⁻¹ s⁻¹ and 253000 M⁻¹ s⁻¹
Kd [5]: 639 nM and 692 nM
koff [5]: 0.17 s⁻¹ and 0.171 s⁻¹
kon [5]: 267000 M⁻¹ s⁻¹ and 247000 M⁻¹ s⁻¹
Kd [6]: 502 nM and 784 nM
koff [6]: 0.169 s⁻¹ and 0.207 s⁻¹
kon [6]: 336000 M⁻¹ s⁻¹ and 264000 M⁻¹ s⁻¹
Kd [7]: 1560 nM and 754 nM
koff [7]: 0.179 s⁻¹ and 0.182 s⁻¹
kon [7]: 115000 M⁻¹ s⁻¹ and 242000 M⁻¹ s⁻¹
Kd [8]: 955 nM and 1310 nM
koff [8]: 0.181 s⁻¹ and 0.209 s⁻¹
kon [8]: 190000 M⁻¹ s⁻¹ and 159000 M⁻¹ s⁻¹
Kd [9]: 1010 nM and 673 nM
koff [9]: 0.195 s⁻¹ and 0.297 s⁻¹
kon [9]: 194000 M⁻¹ s⁻¹ and 442000 M⁻¹ s⁻¹
Kd [10]: 939 nM and 999 nM
koff [10]: 0.14 s⁻¹ and 0.144 s⁻¹
kon [10]: 149000 M⁻¹ s⁻¹ and 144000 M⁻¹ s⁻¹
Kd [11]: 3150 nM
koff [11]: 0.527 s⁻¹
kon [11]: 168000 M⁻¹ s⁻¹
Kd [12]: 1820 nM
koff [12]: 0.417 s⁻¹
kon [12]: 230000 M⁻¹ s⁻¹
Kd [13]: 566 nM
B1: wild-type canine IgGB Fc (CH2-CH3) with N-terminal SASA tag (Fc fusion, part only; not given: SASA tag, not shown: another chain or arm of the molecule; small tags and cut ends)
Fc: APEMLGGPSVFIFPPKPKDTLLIARTPEVTCVVVDLDPEDPEVQISWFVDGKQMQTAKTQPREEQFNGTYRVVSVLPIGHQDWLKGKQFTCKVNNKALPSPIERTISKARGQAHQPSVYVLPPSREELSKNTVSLTCLIKDFFPPDIDVEWQSNGQQEPESKYRTTPPQLDEDGSYFLYSKLSVDKSRWQRGDTFICAVMHEALHNHYTQESLSHSPGK

Kd [14]: 2480 nM
koff [14]: 0.264 s⁻¹
kon [14]: 107000 M⁻¹ s⁻¹
B2: anti-NGF canine IgGB antibody, Fc variant A426H + N434R (antibody, part only; not given: Anti-NGF variable domains, not shown: another chain or arm of the molecule; small tags and cut ends)
Fc: B1 Fc with A198H, N206R

Kd [14]: 3370 nM
koff [14]: 0.385 s⁻¹
kon [14]: 114000 M⁻¹ s⁻¹
Kd [15]: 951 nM
B3: anti-NGF canine IgGB antibody with wild-type IgGB Fc (antibody, part only; not given: Anti-NGF variable domains, not shown: another chain or arm of the molecule; small tags and cut ends)
Fc: B1 Fc
